In publication PMC11059001, “Crystal structure of Trichinella spiralis calreticulin and the structural basis of its complement evasion mechanism involving C1q” (Frontiers in Immunology, 2024):

Biological target: T1, complement C1q (human, UniProt P02745;P02746;P02747)
T1 construct: also called human complement C1q; source: bought: Merk (Darmstadt, Germany); copies: 6 + 6 + 6
Assay: MST; fluorescently labelled C1q (RED-NHS) 40 nM; TsCRT, TsCRT^Δ, mutants or P^TsCRT gradient-diluted; 50 mM Hepes, 150 mM NaCl, 2 mM CaCl2, 0.05% Tween 20, pH 7.4; Monolith NT.115, LED power 20%, MST power 50%
Settings: both partners purified

T1 sequence (P02745 23-245, chain 1 of 3): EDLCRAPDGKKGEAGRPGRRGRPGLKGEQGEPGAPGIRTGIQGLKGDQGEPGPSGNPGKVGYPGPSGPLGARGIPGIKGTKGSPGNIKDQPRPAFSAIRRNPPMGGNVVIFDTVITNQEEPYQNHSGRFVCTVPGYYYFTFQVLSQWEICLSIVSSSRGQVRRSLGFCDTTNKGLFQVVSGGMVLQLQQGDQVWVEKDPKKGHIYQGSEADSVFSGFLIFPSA
T1 sequence (P02746 28-253, chain 2 of 3): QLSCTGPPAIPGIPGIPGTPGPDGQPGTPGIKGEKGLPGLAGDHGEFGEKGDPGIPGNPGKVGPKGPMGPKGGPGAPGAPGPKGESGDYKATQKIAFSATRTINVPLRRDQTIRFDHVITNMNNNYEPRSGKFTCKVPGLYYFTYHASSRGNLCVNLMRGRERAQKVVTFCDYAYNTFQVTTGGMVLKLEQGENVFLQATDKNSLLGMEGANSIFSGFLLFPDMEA
T1 sequence (P02747 29-245, chain 3 of 3): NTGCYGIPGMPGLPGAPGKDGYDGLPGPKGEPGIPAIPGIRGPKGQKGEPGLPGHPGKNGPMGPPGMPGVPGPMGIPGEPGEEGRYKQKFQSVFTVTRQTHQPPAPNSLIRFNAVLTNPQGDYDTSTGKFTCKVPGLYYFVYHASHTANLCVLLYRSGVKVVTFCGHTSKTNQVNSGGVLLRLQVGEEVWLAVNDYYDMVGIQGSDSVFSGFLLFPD

B1: C1q-binding peptide P^TsCRT (TsCRT residues 122-146) (peptide)
peptide: DLEDFNSDTPYRIMFGPDICGPEKR
notes: calreticulin of Trichinella spiralis (TsCRT), residues 122-146; source: synthetic peptide
For B1, the Kd was 260 nM.
